pKd: −log10 of the molar value.
Experiments:
[1] = molecular target: CH2-CH3 construct G1-F405L (human); test: native MS, monomer-dimer equilibrium of CH2-CH3 fragment, homodimer
[2] = molecular target: IgG1Δhinge fragment of IgG1-7D8-K409R; test: native MS, CH2-CH3 fragment mixed with IgG1Δhinge fragment for 24 hours, heterodimer

pKd [1]: 6.07
pKd [2]: 7.92
Substance: CH2-CH3 construct G1-F405L

Source: US20140303356A1
